# Results: the supplement of paper PMC9112550, “Optimization of the antimicrobial peptide Bac7 by deep mutational scanning” (BMC Biology, 2022)
# System: Escherichia coli TOP10
# Assay: shrunken log2 fold change of peptide-encoding DNA abundance (4.5 h post-induction vs induction); higher = less antimicrobial activity (less host growth inhibition)
# Conditions: time post-induction: 4.5 h; library: site-saturation at positions 5, 18, 19, 20
# 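Note: peptides expressed intracellularly from a pBAD plasmid library in pooled LB shake-flask culture, induced with 0.3% L-arabinose, DNA abundance read by NGS, three biological replicates, DESeq2 with apeglm shrinkage.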
row,Sequence,shrunken log2 fold change
1,RRIRARPPRLPRPRPRPDKAPRP,0.121
2,RRIRQRPPRLPRPRPRPFIPPRP,-0.395
3,RRIRRRPPRLPRPRPRPISPPRP,-0.00237
4,RRIRMRPPRLPRPRPRPNRPPRP,-0.0884
5,RRIRSRPPRLPRPRPRPGAPPRP,0.613
6,RRIRPRPPRLPRPRPRPADCPRP,0.273
7,RRIRQRPPRLPRPRPRPPYIPRP,-0.449
8,RRIRIRPPRLPRPRPRPPIFPRP,-0.0827
9,RRIRVRPPRLPRPRPRPNQPPRP,-0.0412
10,RRIRDRPPRLPRPRPRPESVPRP,0.0047
11,RRIRSRPPRLPRPRPRPQGRPRP,-0.0801
12,RRIRGRPPRLPRPRPRPDFNPRP,0.325
13,RRIRVRPPRLPRPRPRPKEIPRP,0.104
14,RRIRNRPPRLPRPRPRPLDRPRP,0.0215
15,RRIRIRPPRLPRPRPRPDDQPRP,0.0121
16,RRIRCRPPRLPRPRPRPVQIPRP,-0.0351
17,RRIRVRPPRLPRPRPRPQCPPRP,-0.0117
18,RRIRGRPPRLPRPRPRPSNIPRP,1.1
19,RRIRWRPPRLPRPRPRPFSIPRP,-0.228
20,RRIRKRPPRLPRPRPRPNNWPRP,0.42
21,RRIRWRPPRLPRPRPRPWLGPRP,0.00929
22,RRIRIRPPRLPRPRPRPRPNPRP,0.091
23,RRIRRRPPRLPRPRPRPWAAPRP,0.403
24,RRIRLRPPRLPRPRPRPPTYPRP,-0.304
25,RRIRQRPPRLPRPRPRPDSTPRP,0.139

row,Sequence,shrunken log2 fold change
1,RRIRTRPPRLPRPRPRPNNCPRP,-0.0675
2,RRIRKRPPRLPRPRPRPLLPPRP,0.227
3,RRIRPRPPRLPRPRPRPSGRPRP,0.0933
4,RRIRYRPPRLPRPRPRPHHTPRP,-0.418
5,RRIRDRPPRLPRPRPRPTMLPRP,0.138
6,RRIRPRPPRLPRPRPRPCWMPRP,-0.126
7,RRIRTRPPRLPRPRPRPSCSPRP,-0.16
8,RRIRGRPPRLPRPRPRPHMSPRP,1.32
9,RRIRMRPPRLPRPRPRPWYSPRP,-0.427
10,RRIRPRPPRLPRPRPRPQPRPRP,0.603
11,RRIRVRPPRLPRPRPRPKFPPRP,0.102
12,RRIRVRPPRLPRPRPRPNDVPRP,-0.116
13,RRIRTRPPRLPRPRPRPPIPPRP,0.128
14,RRIRVRPPRLPRPRPRPTDDPRP,-0.183
15,RRIRGRPPRLPRPRPRPTSVPRP,0.197
16,RRIRMRPPRLPRPRPRPKRYPRP,0.407
17,RRIRPRPPRLPRPRPRPGDRPRP,0.0494
18,RRIRQRPPRLPRPRPRPTLNPRP,0.0729
19,RRIRVRPPRLPRPRPRPPPIPRP,0.59
20,RRIRARPPRLPRPRPRPPVSPRP,0.554
21,RRIRKRPPRLPRPRPRPYWVPRP,-0.306
22,RRIRKRPPRLPRPRPRPWWIPRP,-0.0457
23,RRIRARPPRLPRPRPRPPSIPRP,-0.108
24,RRIRYRPPRLPRPRPRPRTCPRP,-0.134
25,RRIRYRPPRLPRPRPRPCPYPRP,-0.0107

row,Sequence,shrunken log2 fold change
1,RRIRWRPPRLPRPRPRPFFPPRP,-0.0359
2,RRIRIRPPRLPRPRPRPATFPRP,-0.658
3,RRIRLRPPRLPRPRPRPRGSPRP,0.16
4,RRIRIRPPRLPRPRPRPKWKPRP,-0.152
5,RRIRLRPPRLPRPRPRPFCEPRP,-0.157
6,RRIRPRPPRLPRPRPRPTHIPRP,0.0811
7,RRIRKRPPRLPRPRPRPWPLPRP,-0.0227
8,RRIRIRPPRLPRPRPRPPCPPRP,-0.141
9,RRIRYRPPRLPRPRPRPMHPPRP,-0.0223
10,RRIRIRPPRLPRPRPRPPMAPRP,-0.256
11,RRIRLRPPRLPRPRPRPITGPRP,-0.0243
12,RRIRIRPPRLPRPRPRPRWDPRP,-0.12
13,RRIRTRPPRLPRPRPRPYVWPRP,-0.131
14,RRIRQRPPRLPRPRPRPVKGPRP,-0.0475
15,RRIRMRPPRLPRPRPRPSGRPRP,0.556
16,RRIRFRPPRLPRPRPRPWRGPRP,0.172
17,RRIRPRPPRLPRPRPRPFVLPRP,-0.352
18,RRIRGRPPRLPRPRPRPYVGPRP,0.0053
19,RRIRHRPPRLPRPRPRPQQLPRP,0.044
20,RRIRARPPRLPRPRPRPLWNPRP,0.0673
21,RRIRKRPPRLPRPRPRPTNIPRP,-0.188
22,RRIRIRPPRLPRPRPRPCWMPRP,-0.222
23,RRIRTRPPRLPRPRPRPLMRPRP,0.216
24,RRIRSRPPRLPRPRPRPKTLPRP,2.07
25,RRIRIRPPRLPRPRPRPDFDPRP,-0.137

row,Sequence,shrunken log2 fold change
1,RRIRIRPPRLPRPRPRPWRRPRP,1.46
2,RRIRNRPPRLPRPRPRPIMTPRP,-0.269
3,RRIRCRPPRLPRPRPRPCFEPRP,-0.00928
4,RRIRRRPPRLPRPRPRPWAIPRP,-0.0356
5,RRIRKRPPRLPRPRPRPQPQPRP,0.817
6,RRIRPRPPRLPRPRPRPVPHPRP,0.0546
7,RRIRMRPPRLPRPRPRPFLQPRP,-0.0339
8,RRIRLRPPRLPRPRPRPPTPPRP,0.617
9,RRIRQRPPRLPRPRPRPTCIPRP,-0.0736
10,RRIRWRPPRLPRPRPRPNTHPRP,-0.231
11,RRIRKRPPRLPRPRPRPKHTPRP,0.281
12,RRIRARPPRLPRPRPRPGSQPRP,0.368
13,RRIRVRPPRLPRPRPRPDYNPRP,-0.554
14,RRIRPRPPRLPRPRPRPCLCPRP,-0.222
15,RRIRKRPPRLPRPRPRPDQIPRP,-0.0414
16,RRIRFRPPRLPRPRPRPWNWPRP,0.0169
17,RRIRGRPPRLPRPRPRPEDFPRP,0.149
18,RRIRRRPPRLPRPRPRPCPLPRP,0.262
19,RRIRFRPPRLPRPRPRPDGYPRP,0.028
20,RRIRQRPPRLPRPRPRPRMDPRP,-0.0734
21,RRIRKRPPRLPRPRPRPMKIPRP,0.291
22,RRIRVRPPRLPRPRPRPCDHPRP,-0.338
23,RRIRDRPPRLPRPRPRPLGGPRP,0.461
24,RRIRERPPRLPRPRPRPHWCPRP,0.0281
25,RRIRLRPPRLPRPRPRPSTAPRP,-1.05

row,Sequence,shrunken log2 fold change
1,RRIRWRPPRLPRPRPRPRPGPRP,0.772
2,RRIRPRPPRLPRPRPRPVREPRP,0.605
3,RRIRIRPPRLPRPRPRPYNYPRP,-0.65
4,RRIRIRPPRLPRPRPRPTKIPRP,-0.158
5,RRIRRRPPRLPRPRPRPHNNPRP,-0.508
6,RRIRHRPPRLPRPRPRPQSLPRP,-0.00783
7,RRIRRRPPRLPRPRPRPTYSPRP,-0.116
8,RRIRWRPPRLPRPRPRPDTQPRP,-0.0933
9,RRIRLRPPRLPRPRPRPVANPRP,-0.0731
10,RRIRHRPPRLPRPRPRPPQDPRP,0.0355
11,RRIRRRPPRLPRPRPRPQIEPRP,0.694
12,RRIRQRPPRLPRPRPRPYWMPRP,0.0425
13,RRIRARPPRLPRPRPRPQQWPRP,0.2
14,RRIRARPPRLPRPRPRPAFRPRP,0.355
15,RRIRIRPPRLPRPRPRPHYSPRP,-1.15
16,RRIRVRPPRLPRPRPRPIRCPRP,-0.0498
17,RRIRRRPPRLPRPRPRPYCSPRP,-0.262
18,RRIRYRPPRLPRPRPRPKSGPRP,0.0623
19,RRIRYRPPRLPRPRPRPKASPRP,-0.131
20,RRIRRRPPRLPRPRPRPRQWPRP,0.169
21,RRIRKRPPRLPRPRPRPCTHPRP,-0.14
22,RRIRARPPRLPRPRPRPHPIPRP,0.286
23,RRIRNRPPRLPRPRPRPACYPRP,-0.265
24,RRIRVRPPRLPRPRPRPWPAPRP,-0.0676
25,RRIRMRPPRLPRPRPRPTFVPRP,0.134

row,Sequence,shrunken log2 fold change
1,RRIRKRPPRLPRPRPRPIQHPRP,-0.311
2,RRIRMRPPRLPRPRPRPGQDPRP,0.781
3,RRIRARPPRLPRPRPRPQPSPRP,0.555
4,RRIRYRPPRLPRPRPRPGLAPRP,0.323
5,RRIRGRPPRLPRPRPRPVISPRP,0.623
6,RRIRLRPPRLPRPRPRPWYYPRP,-0.266
7,RRIRCRPPRLPRPRPRPKIWPRP,0.121
8,RRIRARPPRLPRPRPRPETQPRP,1.57
9,RRIRFRPPRLPRPRPRPDNFPRP,-0.204
10,RRIRNRPPRLPRPRPRPLHKPRP,-0.101
11,RRIRWRPPRLPRPRPRPTLEPRP,0.608
12,RRIRDRPPRLPRPRPRPKEDPRP,0.337
13,RRIRYRPPRLPRPRPRPNNEPRP,-1.27
14,RRIRHRPPRLPRPRPRPWSSPRP,-0.116
15,RRIRMRPPRLPRPRPRPISEPRP,0.151
16,RRIRVRPPRLPRPRPRPNTFPRP,-0.521
17,RRIRNRPPRLPRPRPRPTMMPRP,0.0241
18,RRIRKRPPRLPRPRPRPKRIPRP,0.0395
19,RRIRNRPPRLPRPRPRPCESPRP,-0.00141
20,RRIRLRPPRLPRPRPRPDERPRP,0.0169
21,RRIRNRPPRLPRPRPRPMANPRP,-9.3e-05
22,RRIRFRPPRLPRPRPRPVYMPRP,-0.969
23,RRIRNRPPRLPRPRPRPKSDPRP,-0.168
24,RRIRCRPPRLPRPRPRPNANPRP,-0.353
25,RRIRPRPPRLPRPRPRPWFEPRP,-0.261
